Data reported in patent publication US20240166738A1 (Alector, published 2024).

Legend:
human TMEM106B = human TMEM106B (human, UniProt Q9NUM4 2-274); assay: cell-based or functional assay; also: test concentration or dose not given here
[1] = target: T1, GST-TMEM106B (truncated, comprising amino acids 122-210 of SEQ ID NO:1) (human, UniProt Q9NUM4 122-210); assay: pre-mix epitope binning, antibody immobilized on chip array
T1 construct: GST written first by the name only; also called truncated GST-TMEM106B fusion protein; GST-TMEM106B polypeptide fusion; not shown: GST fusion partner

Row | Binder | % Protection from CPE (human TMEM106B) [%] | binding result [1]
1 | TM-81 (antibody, V domains shown, mouse hybridoma mAb) VH: QVQLQQSGAELVKPGASVKLSCKASGYTFTSYWMHWVKQRPGQGLEWIGNIDPSDSEIHYNQKFKDKATLTVDKSSSTAYIQLSSLTSEDSAVYYCARSPAGQILDYWGQGTTVTVSS VL: not shown | 4.6 | no binding (tested: 55 nM antigen (2 ug/mL))
2 | TM-85 (antibody, V domains shown, mouse hybridoma mAb) VH: QVQLQQPGAELVRAGTSVKLSCKASGYTFIGYWMHWVKQRPGRGLEWIGRIDPYSGDTRYNEKFKNKATLTVDKPSSTAYMQLSSLTSEDSAVYYCARYGLGHAMDYWGQGTSVTVSS VL: DIAMSQSQKFMSTSVGDRVSVTCKASQNVGTNVAWYQQKPGQSPKALIYSASYRYSGVPDRFTGSGSGTDFTLTISNVQSEDLAEYFCQQYNSYPLTFGAGTKLEMK | 5.2 | no binding (tested: 55 nM antigen (2 ug/mL))
3 | TM-6 (antibody, V domains shown, mouse hybridoma mAb) VH: QVQLQQSGAELVKPGASVKLSCKASGYTFTEYTIHWVKQRSGQGLEWIGWFYPGSTYIDYNEKFKDKATLTADKSSSTVYLELSRLTSEDSAVYFCARHEEDYSNWFPFWGQGTLVTVSA VL: DIQMSQSSSYLSVSLGGRVTITCKASDHINNWLAWYQQKPGNAPRLLISGATSLETGVPSRFSGSGSGKDYTLSITSLQTEDVATYYCQQYWSSPYTFGGGTKLEIK | 4.4 | no binding (tested: 55 nM antigen (2 ug/mL))
4 | TM-2 (antibody, V domains shown, mouse hybridoma mAb) VH: HIQLVQSGPELKKPGETVKISCKASGYTFTEYPMHWVKQAPGKGFRWMGMIYTNTGEPTYAAEFKGRFAFSLETSASTGYLQINNLKNEDSATYFCVTAGYWGQGTLVTVSA VL: QIVLTQSPAILSASPGEKVTMTCRASSSVSYIHWFLQKPGSSPKPWIYATSNLASGVPFRFIGSGSGTSYSLTISGVEAEDSATYYCQQWSSNPSTFGAGTKLELK | 4.3 | no binding (tested: 55 nM antigen (2 ug/mL))
5 | TM-8 (antibody, V domains shown, mouse hybridoma mAb) VH: QIQLVQSGPELKKPGETVKISCKASGYTFTDYPMHWVKQAPGKGFKWMGVIYTDTGEPKYAEVFKGRFAFSLETSASTAYLQINNLKNEDTATYFCVRRLAYWGQGTLVTVSA VL: DIKMTQSPSSMYASLGERVTITCKASQDINSYLSWFQQKPGKSPKTLIFRANRLVDGVPSRFSGSGSGQDYSLTISSLEYEDMGIYYCLQYDEFPLTFGAGTKLEMK | 3.8 | no binding (tested: 55 nM antigen (2 ug/mL))
6 | TM-75 (antibody, V domains shown, mouse hybridoma mAb) VH: EVQLQQSGPELVKPGASVKMSCKASGYTFTSYVMHWVKQKPGQGLEWIGYINPYNDGTKYNEKFKGKATLTSDKSSSTAYMELSSLTSEDSAVYYCARGGWFPYAMDYWGQGTTVTVSS VL: not shown | 5.1 | no binding (tested: 55 nM antigen (2 ug/mL))
7 | TM-33 (antibody, V domains shown, mouse hybridoma mAb) VH: EFQLQQSGPELVKPGASVKISCKASGYSFTDYNMNWVKQSNGKSLEWIGVINPNYGTTSYNQKFKGKATLTVDQSSSTAYMQLNSLTSEDSAVYYCASSYWGQGTLVTVSA VL: DIVMTQSQKFMSTTVGDRVSITCKASQNVGTAVAWYQQKPGQSPKLLIYSASNRYTGVPDRFTGSGSGTDFTLTISNMQSEDLADYFCQQYSSYPYTFGGGTKLEIK | 4.4 | no binding (tested: 55 nM antigen (2 ug/mL))
8 | TM-69 (antibody, V domains shown, mouse hybridoma mAb) VH: QVQLKESGPDLVQPSQTLSLTCTVSGFSFTSYGVHWVRQPPGKGLEWVGIMGWDDKKYYNSALKSRLSISRDTSKNQVFLKLSSLQTEDTAMYYCTREAGPYGMDYWGQGTSVTVSS VL: DVVMTQTPLSLPVSLGDQASISCRSSQSLVHSNGNTYLHWYLQKPGQSPKLLIYKVSNRFSGVPDRFSGSGSGTDFTLKISRVEAEDLGVYFCSQNTHVPLTFGAGTKLELK | 4.3 | no binding (tested: 55 nM antigen (2 ug/mL))
9 | TM-71 (antibody, V domains shown, mouse hybridoma mAb) VH: EVQLVESGGALVKPGGSLKLSCAASGFTFSNYAMSWVRQTPEKRLEWVATIGYGGSYSYYPDSVKGRFTISRDNAKNTLYLQMSSLRSEDTALYYCARQDSNYEGVWFAYWGQGTLVTVSS VL: DIVMTQAAPSVPVTPGESVSISCRSSKSLLHTNGNTYLFWFIQRPGQSPHLLIYRKSNLASGVPDRFSGSGSGTAFTLRISRVEAEDVGVYYCMQHLEYPFTFGSGTKLEIK | 3.2 | no binding (tested: 55 nM antigen (2 ug/mL))
10 | TM-14 (antibody, V domains shown, mouse hybridoma mAb) VH: QVQLQQSGPELVRPGTSVKVSCKASGYAFTNYLIEWVKQRPGQGLEWIGVINPGGGNTDYSEKFKDKATLTADKSSNTAYIQLSSLTSEDSAVYFCARSPYSSYVGYAVDYWGQGTSVTVSS VL: DIQMTQSPSSLSASLGERVSLTCRASQDIGSNLNWLQQEPDGTIKRLIYATSSLDSGVPKRFSGSRSGSDYSLTISSLESEDFVVYYCLQYASSPRTFGGGTRLEIK | 4 | no binding (tested: 55 nM antigen (2 ug/mL))
11 | TM-52 (antibody, V domains shown, mouse hybridoma mAb) VH: QVQLQQPGAELVKPGASVKLSCKASGYTFTNYWMHWVKQRPGQGLDWIGNIDPSDSETHYNQKFKDKATLTVDKVSSTAYMQLSSLTSEDSAVYYCARRGYYGRSPFAYWGQGTLVTVSA VL: ENVLTQSPAIMSASPGEKVTMTCSASSSVSYMHWYQQKSNTSPKLWIYDTSKLASGVPGRFSGSGSGNSYSLTISSAEAEDVATYYCFQGSGYPLTFGAGTKLELK | 3.6 | no binding (tested: 55 nM antigen (2 ug/mL))
12 | TM-65 (antibody, V domains shown, mouse hybridoma mAb) VH: QVQLQQPGAEFVKPGASVRLSCKTSGYTFTSSWMHWVKQRPGQGLEWIGEINPKNGGTNYNEKFKTKATLTVDKSSNTAYMQLSSLTSEDSAVYYCTIPTWFTYWGQGTLVTVSS VL: DIQMNQSPSSLSASLGDTITITCRASQNINIWLSWYQQKPGNVPKLLIYKASNLHTGVPSRFSGSGSGTGFTLTISSLQPEDIATYYCLQGQSYPYTFGGGTKLGIK | 4 | no binding (tested: 55 nM antigen (2 ug/mL))
